From publication PMC3024247

Target: amyloid β-peptide (human, 1-40) (human)
Assay: SPR; Biacore 3000; Aβ immobilised by amine coupling on a CM5 chip; analytes injected in 10 mM HEPES-NaOH pH 7.4, 0.15 M NaCl, 0.0005% Tween 20; 25°C; hMK 0.62-20 μg/ml for the constant, all other analytes 5 μg/ml

B1: human midkine (natural protein)
chain: VAKKKDKVKKGGPGSECAEWAWGPCTPSSKDCGVGFREGTCGAQTQRIRCRVPCNWKKEFGADCKYKFENWGACDGGTGTKVRQGTLKKARYNAQCQETIRVTKPCTPKTKAKAKAKKGKGKD
Kd: 160 nM
